From the Human Domainome abundance scans (Beltran et al. 2025)
± gives the uncertainty stated by the source.

B1: GAS2-like protein 1, residues 209 to 276; numbered along this chain, Q99501 (parent)
chain: DELVREILGRCTCPDQFPMIKVSEGKYRVGDSSLLIFVRVLRSHVMVRVGGGWDTLEHYLDKHDPCRC

Variants of: B1
Assay: abundance fitness (aPCA) (normalised: wild type 0, dead -1); higher = more abundant; growth selection in yeast, the domain comes from the species named
Conditions: Homo sapiens

In order of falling abundance fitness:
1. DELVREILGRCTCPDQFPMYKVSEGKYRVGDSSLLIFVRVLRSHVMVRVGGGWDTLEHYLDKHDPCRC [I20Y]  0.054 ± 0.054
2. DELVREILGRCTCPDQFPMQKVSEGKYRVGDSSLLIFVRVLRSHVMVRVGGGWDTLEHYLDKHDPCRC [I20Q]  0.026 ± 0.1
3. DELVREILGRCTCPDQFPMIRVSEGKYRVGDSSLLIFVRVLRSHVMVRVGGGWDTLEHYLDKHDPCRC [K21R]  0.01 ± 0.036
4. DELVREILGRCTCPDQFPMWKVSEGKYRVGDSSLLIFVRVLRSHVMVRVGGGWDTLEHYLDKHDPCRC [I20W]  0.008 ± 0.06
5. DELVREILGRCTCPDQFPMRKVSEGKYRVGDSSLLIFVRVLRSHVMVRVGGGWDTLEHYLDKHDPCRC [I20R]  -0.009 ± 0.046
6. DELVREILGRCTCPDQFPMVKVSEGKYRVGDSSLLIFVRVLRSHVMVRVGGGWDTLEHYLDKHDPCRC [I20V]  -0.021 ± 0.052
7. DELVREILGRCTCPDQFPMIKISEGKYRVGDSSLLIFVRVLRSHVMVRVGGGWDTLEHYLDKHDPCRC [V22I]  -0.035 ± 0.081
8. DELVREILGRCTCPDQFPMNKVSEGKYRVGDSSLLIFVRVLRSHVMVRVGGGWDTLEHYLDKHDPCRC [I20N]  -0.111 ± 0.16
9. DELVREILGRCTCPDQFPMSKVSEGKYRVGDSSLLIFVRVLRSHVMVRVGGGWDTLEHYLDKHDPCRC [I20S]  -0.207 ± 0.064
10. DELVREILGRCTCPDQFPMIKMSEGKYRVGDSSLLIFVRVLRSHVMVRVGGGWDTLEHYLDKHDPCRC [V22M]  -0.251 ± 0.071
11. DELVREILGRCTCPDQFPMIQVSEGKYRVGDSSLLIFVRVLRSHVMVRVGGGWDTLEHYLDKHDPCRC [K21Q]  -0.254 ± 0.076
12. DELVREILGRCTCPDQFPMIKHSEGKYRVGDSSLLIFVRVLRSHVMVRVGGGWDTLEHYLDKHDPCRC [V22H]  -0.26 ± 0.12
13. DELVREILGRCTCPDQFPMIMVSEGKYRVGDSSLLIFVRVLRSHVMVRVGGGWDTLEHYLDKHDPCRC [K21M]  -0.297 ± 0.087
14. DELVREILGRCTCPDQFPMIKASEGKYRVGDSSLLIFVRVLRSHVMVRVGGGWDTLEHYLDKHDPCRC [V22A]  -0.311 ± 0.34
15. DELVREILGRCTCPDQFPMIKLSEGKYRVGDSSLLIFVRVLRSHVMVRVGGGWDTLEHYLDKHDPCRC [V22L]  -0.323 ± 0.055
16. DELVREILGRCTCPDQFPMIKDSEGKYRVGDSSLLIFVRVLRSHVMVRVGGGWDTLEHYLDKHDPCRC [V22D]  -0.327 ± 0.28
17. DELVREILGRCTCPDQFPMIKCSEGKYRVGDSSLLIFVRVLRSHVMVRVGGGWDTLEHYLDKHDPCRC [V22C]  -0.365 ± 0.099
18. DELVREILGRCTCPDQFPMIEVSEGKYRVGDSSLLIFVRVLRSHVMVRVGGGWDTLEHYLDKHDPCRC [K21E]  -0.396 ± 0.1
19. DELVREILGRCTCPDQFPMIWVSEGKYRVGDSSLLIFVRVLRSHVMVRVGGGWDTLEHYLDKHDPCRC [K21W]  -0.397 ± 0.08
20. DELVREILGRCTCPDQFPMIHVSEGKYRVGDSSLLIFVRVLRSHVMVRVGGGWDTLEHYLDKHDPCRC [K21H]  -0.426 ± 0.085
21. DELVREILGRCTCPDQFPMIKRSEGKYRVGDSSLLIFVRVLRSHVMVRVGGGWDTLEHYLDKHDPCRC [V22R]  -0.428 ± 0.073
22. DELVREILGRCTCPDQFPMIKFSEGKYRVGDSSLLIFVRVLRSHVMVRVGGGWDTLEHYLDKHDPCRC [V22F]  -0.518 ± 0.13
23. DELVREILGRCTCPDQFPMIYVSEGKYRVGDSSLLIFVRVLRSHVMVRVGGGWDTLEHYLDKHDPCRC [K21Y]  -0.525 ± 0.12
24. DELVREILGRCTCPDQFPMILVSEGKYRVGDSSLLIFVRVLRSHVMVRVGGGWDTLEHYLDKHDPCRC [K21L]  -0.541 ± 0.062
25. DELVREILGRCTCPDQFPMICVSEGKYRVGDSSLLIFVRVLRSHVMVRVGGGWDTLEHYLDKHDPCRC [K21C]  -0.543 ± 0.21
26. DELVREILGRCTCPDQFPMIPVSEGKYRVGDSSLLIFVRVLRSHVMVRVGGGWDTLEHYLDKHDPCRC [K21P]  -0.646 ± 0.1
27. DELVREILGRCTCPDQFPMIKTSEGKYRVGDSSLLIFVRVLRSHVMVRVGGGWDTLEHYLDKHDPCRC [V22T]  -0.662 ± 0.17
28. DELVREILGRCTCPDQFPMIGVSEGKYRVGDSSLLIFVRVLRSHVMVRVGGGWDTLEHYLDKHDPCRC [K21G]  -0.689 ± 0.077
29. DELVREILGRCTCPDQFPMITVSEGKYRVGDSSLLIFVRVLRSHVMVRVGGGWDTLEHYLDKHDPCRC [K21T]  -0.739 ± 0.11
30. DELVREILGRCTCPDQFPMISVSEGKYRVGDSSLLIFVRVLRSHVMVRVGGGWDTLEHYLDKHDPCRC [K21S]  -0.747 ± 0.088
31. DELVREILGRCTCPDQFPMIAVSEGKYRVGDSSLLIFVRVLRSHVMVRVGGGWDTLEHYLDKHDPCRC [K21A]  -0.748 ± 0.14
32. DELVREILGRCTCPDQFPMIVVSEGKYRVGDSSLLIFVRVLRSHVMVRVGGGWDTLEHYLDKHDPCRC [K21V]  -0.791 ± 0.087
33. DELVREILGRCTCPDQFPMIDVSEGKYRVGDSSLLIFVRVLRSHVMVRVGGGWDTLEHYLDKHDPCRC [K21D]  -0.804 ± 0.2
34. DELVREILGRCTCPDQFPMINVSEGKYRVGDSSLLIFVRVLRSHVMVRVGGGWDTLEHYLDKHDPCRC [K21N]  -0.828 ± 0.24
35. DELVREILGRCTCPDQFPMIKSSEGKYRVGDSSLLIFVRVLRSHVMVRVGGGWDTLEHYLDKHDPCRC [V22S]  -0.848 ± 0.098
36. DELVREILGRCTCPDQFPMIKGSEGKYRVGDSSLLIFVRVLRSHVMVRVGGGWDTLEHYLDKHDPCRC [V22G]  -0.916 ± 0.39
37. DELVREILGRCTCPDQFPMPKVSEGKYRVGDSSLLIFVRVLRSHVMVRVGGGWDTLEHYLDKHDPCRC [I20P]  -0.917 ± 0.25
38. DELVREILGRCTCPDQFPMIKPSEGKYRVGDSSLLIFVRVLRSHVMVRVGGGWDTLEHYLDKHDPCRC [V22P]  -0.971 ± 0.29
39. DELVREILGRCTCPDQFPMIIVSEGKYRVGDSSLLIFVRVLRSHVMVRVGGGWDTLEHYLDKHDPCRC [K21I]  -0.981 ± 0.27
